# B1: GST-YFP-RevNLS (aa35-46) (domain or fragment)
# chain: RQARRNRRRRWR
# notes: source: recombinant GST fusion protein, purified; produced as described previously; not shown: GST, N-terminal, kept; YFP, N-terminal, kept
# Target: T1, recombinant 6×His-HIC (Human I-mfa domain-Containing protein) (human, UniProt Q9P1T7-2 1-246)
# T1 construct: also called 6xHis-HIC; 6ΧHis HIC; source: recombinant, purified; produced as described previously [25]; not shown: 6xHis, N-terminal, kept
# T1 sequence (looked up): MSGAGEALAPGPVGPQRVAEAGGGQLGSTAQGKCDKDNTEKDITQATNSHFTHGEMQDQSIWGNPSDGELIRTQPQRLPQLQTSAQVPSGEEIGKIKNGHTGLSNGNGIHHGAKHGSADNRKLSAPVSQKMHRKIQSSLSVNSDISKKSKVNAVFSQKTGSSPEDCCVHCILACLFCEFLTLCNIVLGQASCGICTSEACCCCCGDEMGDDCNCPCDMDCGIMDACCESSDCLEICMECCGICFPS
# Assay: pull-down
# Conditions: both partners purified
binder,measurement,value
B1,binding result,binds
